Measured values from patent US20050142135A1, “Agents and methods for modulating interactions between gonadotropin hormones and receptors” (University of Kentucky Research Foundation, priority 2003, published 2005).

Legend:
[1] = tested on: human FSHR; assay: ^125I-FSH binding to wild type and mutant FSH receptors on intact stably transfected HEK 293 cells; conditions: for FSH binding / Kd compared with the wild type receptor, in words: intact HEK 293 cells
Method: (§1) Mutant FSHR cDNAs were prepared in the pSELECT vector using the Altered Sites Mutagenesis system (Promega), sequenced on a Beckman CEQ 2000XL capillary sequencer, subcloned into pcDNA3 (Invitrogen), and sequenced again to verify mutation sequences. […] Wild type and mutant receptor constructs were transfected into HEK 293 cells by the calcium phosphate method as previously described. Stable cell lines were established in minimum essential medium containing 10% horse serum and 500 μg/ml of G418. These cells were used for hormone binding, cAMP production. All assays were carried out in duplicate and repeated 4-5 times, and means±S.D. were calculated.
(§2) The Kd values were determined by Scatchard plots. For intracellular cAMP assay, cells were washed twice with Dulbecco's modified Eagle's medium and incubated in the medium containing 0.1 μg/ml isobutylmethylxanthine for 15 mm. Increasing concentrations of FSH were then added and incubation was continued for 45 mm at 37° C. After removing the medium, the cells were rinsed once with fresh medium without isobutylmethylxanthine, lysed in 70% ethanol, freeze-thawed in liquid nitrogen, and scraped.
Each mutant human FSHR cDNA was prepared in a pSELECT vector using the non-PCR based Altered Sites Mutagenesis System (Promega), sequenced on a Beckman CEQ 2000XL capillary sequencer and subcloned into pcDNA3 (Invitrogen) as described. After subcloning pcDNA3 the mutant cDNAs were sequenced again. Plasmids were transfected into human embryonic kidney (HEK) 293 cells by the calcium phosphate method. Stable cell lines were established in minimum essential medium containing 10% horse serum and 500 μg/ml of G-418, and then used for hormone binding and cAMP assay. All assays were carried out in duplicate and repeated 4-6 times. Means and standard variations were calculated.
(§3) Human FSH (the National Hormone and Pituitary Program) was radioiodinated as previously described for radioiodination of hCG. […] The Kd values were determined by Scatchard plots. Truncated exodomain was solubilized in Nonidet P-40 and assayed for hormone binding as described previously. For intracellular cAMP assay, cells were washed twice with Dulbecco's modified Eagle's media and incubated in the media containing isobutylmethylxanthine (0.1 mg/ml) for 15 minutes. Increasing concentrations of FSH were then added and the incubation was continued for 45 minutes at 37° C. After removing the media, the cells were rinsed once with fresh media without isobutylmethylxanthine, lysed in 70% ethanol, freeze-thawed in liquid nitrogen, and scraped. […] Exoloop 3 of FSHR was modeled based on the crystal structure of rhodopsin as a template.

[2] = tested on: FSHR; assay: ^125I-FSH binding to solubilized FSHR (NP-40); design: species or system human; conditions: solubilized mutant receptors
Method: Transfected cells were washed twice with ice cold 150 mM NaCl, 20 mM HEPES, pH 7.4 (buffer A). Cells were scraped on ice, collected in buffer A containing protease inhibitors (1 mM phenylmethylsulfonyl fluoride, 5 mM N-ethylmaleimide, and 10 mM EDTA), and pelleted by centrifugation at 1300×g for 10 minutes. Cells were resuspended in 0.6 ml of buffer A containing 1% NP-40, 20% glycerol, and the above protease inhibitors (buffer B), incubated on ice for 15 mm, and diluted with 5.4 ml of buffer A containing 20% glycerol plus the protease inhibitors (buffer C). The mixture was centrifuged at 100,000×g for 60 minutes. […] After incubation for 12 hours at 4° C., the solution was thoroughly mixed with 250 μl of buffer A containing bovine γ-globulin (5 μg/ml) and 750 μl of buffer A containing 20% polyethylene glycol 8000. After incubation for 10 minutes at 4° C., samples were pelleted at 1300×g for 30 mm and supernatants removed. Pellets were resuspended in 1.5 ml of buffer A containing 20% polyethylene glycol 8000, centrifuged, and counted for radioactivity.

[3] = tested on: human FSHR; assay: Inositol phosphate assay, FSHR exoloop 3 mutants in HEK 293 cells, FSH stimulated; type: cell-based; conditions: for IPt (CPM): total IP production in response to increasing concentrations of FSH, NS = not significant
Method: Stable cells were plated in 12 well plates and grown in inositol free DMEM (Atlanta Biologicals) supplemented with 8% heat-inactivated horse serum and 2 μCi/ml ^3H-inositol (N EN) for 48 h to 40-50% confluency. After removing the medium, the cells were incubated in 1 ml of fresh wash buffer consisting of DMEM without inositol and 15 mM HEPES (pH 7.3) for 1 hour at 37° C. This medium was removed and 0.3 ml wash buffer containing 20 mM LiCl was added and incubated for 15 minutes at 37° C. After the cells were stimulated with increasing concentrations of hormone for 30 minutes at 37° C., the incubation was terminated by the removal of medium and the addition of 0.25 ml of 0.6 N HCl to each well. The cells were scraped and transferred into microcentrifuge tubes, and the wells were again washed with 0.25 ml of 0.6 N HCl. The combined washes were treated with 0.9 ml of a mixture of chloroform:methanol (2:1), vortexed and centrifuged at 1000×g for 5 minutes at room temperature. The top aqueous layer, which was free of phospholipids, was removed and the remaining chloroform layer treated with 0.2 ml of methanol:water (1:1), vortexed and centrifuged. This aqueous layer was added to the previous aqueous layer and the samples dried in a vacuum concentrator. The dried samples were redissolved in 0.5 ml of 50 mM Tris-HCl, pH 8 and applied to Dowex AG 1-X8 formate (BIO-RAD) columns. The microcentrifuge tubes were washed twice with 0.5 ml of the same buffer and the washes applied to the columns for a total of 1.5 ml. The columns were sequentially washed with 4.5 ml H2O and 4.5 ml 60 mM ammonium formate and 5 mM sodium tetraborate to elute the free inositol and the glycerol phosphoinositol. IP1, IP2 and IP3 were sequentially eluted with 4 ml of 0.1 N formic acid in 0.2 M, 0.75 M ammonium formate and 1.1 M ammonium formate, respectively and collected in 1 ml fractions. Aliquots of 200 μl were counted for radioactivity in 1.5 ml of Ultima AF scintillation fluid (Packard). Peak radioactivities were used for the data analysis.

[4] = tested on: human FSHR; assay: FSH dependent intracellular cAMP assay, wild type and mutant FSHR in HEK 293 cells; type: cell-based; conditions: HEK 293 cells
Method: as §1, §2, §3

FSH binding to receptors solubilized in NP-40 [2]	Molecule	FSH binding / Kd compared with the wild type receptor, in words [1]	Kd ([1]; ^125I-FSH binding, Scatchard plots, HEK 293 cells) [nM]	IPt (CPM) [3]	FSH dependent cAMP induction / EC50 compared with the wild type receptor, in words [4]	IP induction (IP1, IP2, IP3, IPt) in response to FSH, in words ([3]; HEK 293 cells)
did not bind	L^27A: human FSHR with Ala substituted for L27 (protein) CHHRICHCSNRVFLCQESKVTEIPSDAPRNAIELRFVLTKLRVIQKGAFSGFGDLEKIEISQNDVLEVIEADVFSNLPKLHEIRIEKANNLLYINPEAFQNLPNLQYLLISNTGIKHLPDVHKIHSLQKVLLDIQDNINIHTIERNSFVGLSFESVILWLNKNGIQEIHNCAFNGTQLDELNLSDNNNLEELPNDVFHGASGPVILDISRTRIHSLPSYGLENLKKLRARSTYNLKKLPTLEKLVALMEASLTYPSHCCAFANWRRQISELHPICNKSILRQEVDYMTQARGQRSSLAEDNESSYSRGFDMTYTEFDYDLCNEVVDVTCSPKPDAFNPCEDIMGYNILRVLIWFISILAITGNIIVLVILTTSQYKLTVPRFLMCNLAFADLCIGIYLLLIASVDIHTKSQYHNYAIDWQTGAGCDAAGFFTVFASELSVYTLTAITLERWHTITHAMQLDCKVQLRHAASVMVMGWIFAFAAALFPIFGISSYMKVSICLPMDIDSPLSQLYVMSLLVLNVLAFVVICGCYIHIYLTVRNPNIVSSSSDTRIAKRMAMLIFTDFLCMAPISFFAISASLKVPLITVSKAKILLVLFHPINSCANPFLYAIFTKNFRRDFFILLSKCGCYEMQAQIYRTETSSTVHNTHPRNGHCSSAPRVTSGSTYILVPLSHLAQN	completely abrogated hormone binding	–	–	–	–
did not bind	C^15A: human FSHR with Ala substituted for C15 (protein) CHHRICHCSNRVFLAQESKVTEIPSDLPRNAIELRFVLTKLRVIQKGAFSGFGDLEKIEISQNDVLEVIEADVFSNLPKLHEIRIEKANNLLYINPEAFQNLPNLQYLLISNTGIKHLPDVHKIHSLQKVLLDIQDNINIHTIERNSFVGLSFESVILWLNKNGIQEIHNCAFNGTQLDELNLSDNNNLEELPNDVFHGASGPVILDISRTRIHSLPSYGLENLKKLRARSTYNLKKLPTLEKLVALMEASLTYPSHCCAFANWRRQISELHPICNKSILRQEVDYMTQARGQRSSLAEDNESSYSRGFDMTYTEFDYDLCNEVVDVTCSPKPDAFNPCEDIMGYNILRVLIWFISILAITGNIIVLVILTTSQYKLTVPRFLMCNLAFADLCIGIYLLLIASVDIHTKSQYHNYAIDWQTGAGCDAAGFFTVFASELSVYTLTAITLERWHTITHAMQLDCKVQLRHAASVMVMGWIFAFAAALFPIFGISSYMKVSICLPMDIDSPLSQLYVMSLLVLNVLAFVVICGCYIHIYLTVRNPNIVSSSSDTRIAKRMAMLIFTDFLCMAPISFFAISASLKVPLITVSKAKILLVLFHPINSCANPFLYAIFTKNFRRDFFILLSKCGCYEMQAQIYRTETSSTVHNTHPRNGHCSSAPRVTSGSTYILVPLSHLAQN	abolished hormone binding	–	–	–	–
–	wild type: wild type human FSH receptor expressed in HEK 293 cells (protein) CHHRICHCSNRVFLCQESKVTEIPSDLPRNAIELRFVLTKLRVIQKGAFSGFGDLEKIEISQNDVLEVIEADVFSNLPKLHEIRIEKANNLLYINPEAFQNLPNLQYLLISNTGIKHLPDVHKIHSLQKVLLDIQDNINIHTIERNSFVGLSFESVILWLNKNGIQEIHNCAFNGTQLDELNLSDNNNLEELPNDVFHGASGPVILDISRTRIHSLPSYGLENLKKLRARSTYNLKKLPTLEKLVALMEASLTYPSHCCAFANWRRQISELHPICNKSILRQEVDYMTQARGQRSSLAEDNESSYSRGFDMTYTEFDYDLCNEVVDVTCSPKPDAFNPCEDIMGYNILRVLIWFISILAITGNIIVLVILTTSQYKLTVPRFLMCNLAFADLCIGIYLLLIASVDIHTKSQYHNYAIDWQTGAGCDAAGFFTVFASELSVYTLTAITLERWHTITHAMQLDCKVQLRHAASVMVMGWIFAFAAALFPIFGISSYMKVSICLPMDIDSPLSQLYVMSLLVLNVLAFVVICGCYIHIYLTVRNPNIVSSSSDTRIAKRMAMLIFTDFLCMAPISFFAISASLKVPLITVSKAKILLVLFHPINSCANPFLYAIFTKNFRRDFFILLSKCGCYEMQAQIYRTETSSTVHNTHPRNGHCSSAPRVTSGSTYILVPLSHLAQN	–	4	1,660 ± 240 CPM	–	–
–	L^583 Y: human FSHR mutant, Tyr for L583 (protein) CHHRICHCSNRVFLCQESKVTEIPSDLPRNAIELRFVLTKLRVIQKGAFSGFGDLEKIEISQNDVLEVIEADVFSNLPKLHEIRIEKANNLLYINPEAFQNLPNLQYLLISNTGIKHLPDVHKIHSLQKVLLDIQDNINIHTIERNSFVGLSFESVILWLNKNGIQEIHNCAFNGTQLDELNLSDNNNLEELPNDVFHGASGPVILDISRTRIHSLPSYGLENLKKLRARSTYNLKKLPTLEKLVALMEASLTYPSHCCAFANWRRQISELHPICNKSILRQEVDYMTQARGQRSSLAEDNESSYSRGFDMTYTEFDYDLCNEVVDVTCSPKPDAFNPCEDIMGYNILRVLIWFISILAITGNIIVLVILTTSQYKLTVPRFLMCNLAFADLCIGIYLLLIASVDIHTKSQYHNYAIDWQTGAGCDAAGFFTVFASELSVYTLTAITLERWHTITHAMQLDCKVQLRHAASVMVMGWIFAFAAALFPIFGISSYMKVSICLPMDIDSPLSQLYVMSLLVLNVLAFVVICGCYIHIYLTVRNPNIVSSSSDTRIAKRMAMLIFTDFLCMAPISFFAISASLKVPYITVSKAKILLVLFHPINSCANPFLYAIFTKNFRRDFFILLSKCGCYEMQAQIYRTETSSTVHNTHPRNGHCSSAPRVTSGSTYILVPLSHLAQN	–	–	440 ± 17 CPM	induced significant amounts of cAMP with reasonable EC50 values	produced a small amount of IPt
